The target in the series is T1, GST-EIL1-N (OsEIL1 N-terminal region) (Oryza sativa (rice), UniProt Q10M41 1-350).
T1 sequence: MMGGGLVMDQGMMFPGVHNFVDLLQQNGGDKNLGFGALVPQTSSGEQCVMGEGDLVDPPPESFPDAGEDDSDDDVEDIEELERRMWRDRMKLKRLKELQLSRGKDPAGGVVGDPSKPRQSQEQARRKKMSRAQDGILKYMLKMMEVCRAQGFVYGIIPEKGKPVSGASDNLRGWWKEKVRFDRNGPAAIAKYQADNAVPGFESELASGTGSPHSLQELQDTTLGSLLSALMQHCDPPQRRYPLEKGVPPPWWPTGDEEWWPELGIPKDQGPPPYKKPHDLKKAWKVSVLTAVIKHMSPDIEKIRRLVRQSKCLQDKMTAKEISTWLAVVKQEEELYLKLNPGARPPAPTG
The series can be described thus: EMSA; specificity shown by excess unlabeled probe competition; LightShift Chemiluminescent EMSA kit, manufacturer's protocol; 20 min at room temperature; 5% native polyacrylamide gel; buffer, salt and pH not stated. Particulars: protein: recombinant; tags: N-terminal GST (pGEX-6p-1); label: biotin 3' end; blunt.

B1: YUC8/REIN7 promoter EBS probe (P1 fragment region) (dsDNA)
DNA 1: CCAAAATTTTTAATGTAAAATTTTAAGTACATTTTTTTCATGTACTAGCTACCTCC
DNA 2: GGAGGTAGCTAGTACATGAAAAAAATGTACTTAAAATTTTACATTAAAAATTTTGG
Take B1: the binding result is “binds”.
